{
  "source": "patent US9752168B2",
  "about": "“Compositions comprising a polypeptide having cellulolytic enhancing activity and a quinone compound and uses thereof” (priority 2010, dated 2017)",
  "key": {"[1]": {"test_system": "Trichoderma reesei cellulase composition", "assay": "Hydrolysis of AVICEL® (microcrystalline cellulose) by the T. reesei cellulase composition", "conditions": "no quinone compound, cellulase 4 mg protein/g cellulose, GH61 polypeptide where present 0.4 mg/g cellulose (10% w/w of cellulase)"}, "[2]": {"test_system": "T. reesei cellulase composition", "assay": "Enhancement of microcrystalline cellulose cellulolysis by the T. reesei cellulase composition using combinations of compounds and various GH61 polypeptides", "conditions": "mixtures of compounds at 3 mM"}},
  "data": [
    {"molecule": "A. fumigatus GH61B polypeptide: GH61 polypeptide having cellulolytic enhancing activity (SEQ ID NO: 30), recombinantly prepared according to WO 2010/138754 (protein, listed as Aspergillus fumigatus) MTLSKITSIAGLLASASLVAGHGFVSGIVADGKYYGGYLVNQYPYMSNPPDTIAWSTTATDLGFVDGTGYQSPDIICHRDAKNGKLTATVAAGSQIEFQWTTWPESHHGPLITYLAPCNGDCATVDKTTLKFVKIAAQGLIDGSNPPGVWADDEMIANNNTATVTIPASYAPGNYVLRHEIIALHSAGNLNGAQNYPQCFNIQITGGGSAQGSGTAGTSLYKNTDPGIKFDIYSDLSGGYPIPGPALFNA", "values": [
      {"measurement": "Percent conversion of AVICEL®", "setting": "[1]; 1 day", "value": "13.7±0.2", "unit": "%"},
      {"measurement": "Percent conversion of AVICEL®", "setting": "[1]; 3 days", "value": "29±1", "unit": "%"},
      {"measurement": "Percent conversion of AVICEL®", "setting": "[1]; 7 days", "value": "46±2", "unit": "%"},
      {"measurement": "overall conversion of AVICEL®, comparison among GH61 polypeptides", "setting": "[2]", "value": "highest overall conversion"}
    ]}
  ]
}
